Results reported in patent US20080027145A1 (published 2008).
Where two headings read alike, the source gives them in different places.

Experiments:
human Bcl-2 ΔC22 [1] = biological target: T1, human Bcl-2 ΔC22 (human, UniProt P10415 1-217); test: Biacore solution competition against immobilised mouse wtBimBH3
T1 construct: Recombinant, bacterial, N-terminal HexaHis fusion; hydrophobic C-terminus removed; also called hBcl-2
Description: (§1) The baseline response (control channel) was subtracted to obtain the absolute binding response. […] Theoretically, IC50=[A]/2+KD, where [A] is the analyte concentration.
(§2) To assess if other BH3 peptides bind pro-survival proteins similarly, we directly compared their binding affinities in solution using a competitive binding assay. […] As the IC50 values reflect relative binding affinities (see Experimental Procedures), we used this assay to compare the binding affinities of eight BH3 peptides (Table 3) to the five pro-survival proteins.

human Bcl-xL ΔC24 [2] = biological target: T2, human Bcl-xL ΔC24 (human, UniProt Q07817 1-209); test: as above
T2 construct: Expressed as GST fusion and cleaved off the glutathione column; also called hBcl-xL ΔC24
Description: as §1, §2

[3] = biological target: T3, human Bcl-w ΔC29 (C29S A128E) (human, UniProt Q92843 1-164); test: as above
T3 construct: range 1-164; residues 1-209), which are those of Bcl-xL; also called hBcl-w
T3 sequence: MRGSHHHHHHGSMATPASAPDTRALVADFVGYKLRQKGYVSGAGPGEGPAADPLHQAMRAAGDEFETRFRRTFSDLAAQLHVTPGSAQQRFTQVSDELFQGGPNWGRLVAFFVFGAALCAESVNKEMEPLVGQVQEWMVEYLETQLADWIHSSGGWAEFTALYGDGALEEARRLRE
Description: as §1, §2

human Bcl-xL ΔC24 [4] = biological target: T2, human Bcl-xL ΔC24; test: as above; remark: listed apart in the source
Description: FIG. 1 is a graphical representation showing competitive binding assays. […] (C) Solution competition assay. […] The line (at 430 s) indicates the response used for calculating the IC50. […] (Irregular responses after 500 s are due to washing the chips after analyte dissociation). Color reproductions are available from the patentees on request.
The baseline response (control channel) was subtracted to obtain the absolute binding response.

human Bcl-xL ΔC24 [5] = biological target: T2, human Bcl-xL ΔC24; test: SPR direct binding, protein over immobilised NoxaBH3
Description: Affinity measurements were performed at room temperature on a Biacore 3000 biosensor (Biacore) with HBS (10 mM HEPES pH 7.2, 150 mM NaCl, 3.4 mM EDTA, 0.005% Tween 20) as the running buffer. […] Residual bound proteins were desorbed with 50 mM NaOH or 6 M GuHCl (pH 7.2), followed by two washes with running buffer. Binding kinetics were derived from sensorgrams, following subtraction of baseline responses, using BIA evaluation software (version 3, Biacore) (Wilson-Annan et al., Supra).

human Bcl-xL ΔC24 [6] = biological target: T2, human Bcl-xL ΔC24; test: solution competition on Biacore, immobilised m wtBimBH3
Description: as §1

human Bcl-xL ΔC24 [7] = biological target: T2, human Bcl-xL ΔC24; test: solution competition on Biacore (IC50 ratio)
human Bcl-xL ΔC24 [8] = biological target: T2, human Bcl-xL ΔC24; test: solution competition on Biacore (FIG. 9C)
Description: as §1

human Bcl-2 ΔC22 [9] = biological target: T1, human Bcl-2 ΔC22; test: Biacore solution competition against immobilised mouse wtBimBH3; remark: listed apart in the source
Description: as §1

[10] = biological target: T3, human Bcl-w ΔC29 (C29S A128E); test: as above; remark: listed apart in the source
Description: as §1

[11] = biological target: T3, human Bcl-w ΔC29 (C29S A128E); test: solution competition on Biacore (FIG. 9C)
Description: as §1

human Bcl-xL ΔC24 [12] = biological target: T2, human Bcl-xL ΔC24; test: solution competition on Biacore
[13] = biological target: T4, FLAG-tagged mouse Mcl-1 (full-length) (mouse, UniProt P97287 1-331); test: co-immunoprecipitation from 293T lysates, 35S fluorography (D) and immunoblot of the same filters (E) [E]
T4 construct: whole, on cells; Full-length, expressed in 293T cells, precipitated from lysates; also called FLAG-Mcl-1; Mcl-1 (in cells)
Description: (§3) Equivalent ³⁵S-labeled lysates harvested from 293T cells were immunoprecipitated with antibodies to the HA, FLAG (FL) or control (C) tags.
(§4) The maintenance, transfection and metabolic labeling of the human embryonic kidney (HEK) 293T cells with ³⁵S-methionine/cysteine (NEN) as well as co-immunoprecipitation have been described (Huang et al., Supra; Moriishi et al., Proc Natl Acad Sci USA 96:9683-9688, 1999; O'Conner et al., Supra). Briefly, equivalent TCA-precipitable lysates were immunoprecipiated using the mouse monoclonal antibodies to HA (HA.11; CRP), FLAG (M2; Sigma) and control Glu-Glu (CRP) tags. The proteins were resolved by SDS:PAGE, transferred onto nitrocellulose membranes and detected by fluorography (Amplify; Amersham Biosciences).

[14] = biological target: T5, FLAG-tagged human Bcl-xL (full-length) (human, UniProt Q07817 1-233); test: co-immunoprecipitation from 293T lysates, 35S fluorography (F) and immunoblot of the same filters (G) [G]
T5 construct: whole, on cells; Full-length, expressed in 293T cells, precipitated from lysates; also called FLAG-Bcl-xL; Bcl-xL (in cells)
Description: as §3, §4

[15] = biological target: T6, FLAG-tagged human Bcl-2 (full-length) (human, UniProt P10415 1-239); test: as above
T6 construct: whole, on cells; Full-length, expressed in 293T cells, precipitated from lysates; also called FLAG-Bcl-2; Bcl-2 (in cells)
Description: as §3, §4

human Bcl-2 ΔC22 [16] = biological target: T1, human Bcl-2 ΔC22; test: solution competition on Biacore
[17] = biological target: T3, human Bcl-w ΔC29 (C29S A128E); test: solution competition on Biacore

T2 sequence (Q07817 other isoform, or with tags, fused parts or gaps mutant limits assumed): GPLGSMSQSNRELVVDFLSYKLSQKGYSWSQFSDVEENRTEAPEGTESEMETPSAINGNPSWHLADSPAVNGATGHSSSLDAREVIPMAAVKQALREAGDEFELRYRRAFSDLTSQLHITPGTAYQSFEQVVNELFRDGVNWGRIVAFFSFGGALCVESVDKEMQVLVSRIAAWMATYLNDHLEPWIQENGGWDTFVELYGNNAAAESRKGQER
T1 sequence (P10415 other isoform, or with tags, fused parts or gaps mutant limits assumed): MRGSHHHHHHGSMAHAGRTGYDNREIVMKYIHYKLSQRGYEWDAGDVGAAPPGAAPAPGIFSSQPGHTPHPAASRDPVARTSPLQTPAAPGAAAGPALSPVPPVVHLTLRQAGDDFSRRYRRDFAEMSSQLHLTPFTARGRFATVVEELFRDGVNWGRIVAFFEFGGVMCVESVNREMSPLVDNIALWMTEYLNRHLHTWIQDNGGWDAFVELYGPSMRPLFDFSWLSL
T5 sequence (Q07817 other isoform, or with tags, fused parts or gaps): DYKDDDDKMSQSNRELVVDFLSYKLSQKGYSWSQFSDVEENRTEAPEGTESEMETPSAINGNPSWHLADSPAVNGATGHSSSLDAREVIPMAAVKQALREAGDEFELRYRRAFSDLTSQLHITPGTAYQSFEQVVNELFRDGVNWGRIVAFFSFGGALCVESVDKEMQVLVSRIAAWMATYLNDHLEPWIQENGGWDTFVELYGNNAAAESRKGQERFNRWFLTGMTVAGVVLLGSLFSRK
T4 sequence (P97287 other isoform, or with tags, fused parts or gaps): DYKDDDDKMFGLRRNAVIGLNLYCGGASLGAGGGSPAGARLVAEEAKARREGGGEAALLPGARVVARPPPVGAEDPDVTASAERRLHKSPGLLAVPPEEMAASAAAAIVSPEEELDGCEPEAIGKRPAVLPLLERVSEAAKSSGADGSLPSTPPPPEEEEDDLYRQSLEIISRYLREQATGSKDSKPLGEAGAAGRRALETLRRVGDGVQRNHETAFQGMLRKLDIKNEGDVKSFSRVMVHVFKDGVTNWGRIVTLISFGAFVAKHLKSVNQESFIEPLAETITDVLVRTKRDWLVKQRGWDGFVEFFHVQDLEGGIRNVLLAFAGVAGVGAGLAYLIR
T6 sequence (P10415 other isoform, or with tags, fused parts or gaps): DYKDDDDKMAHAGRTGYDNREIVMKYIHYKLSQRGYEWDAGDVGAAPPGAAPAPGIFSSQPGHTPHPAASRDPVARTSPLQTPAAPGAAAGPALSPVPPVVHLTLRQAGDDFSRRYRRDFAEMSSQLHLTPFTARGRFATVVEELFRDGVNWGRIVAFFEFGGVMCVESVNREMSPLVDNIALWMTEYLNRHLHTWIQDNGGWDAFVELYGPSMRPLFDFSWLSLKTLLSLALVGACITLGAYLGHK

HRAEVQIARKLQCIADQFHRLHTQ (also called BmfBH3) [m Bmf (128-151) BH3 peptide]
IC50 (human Bcl-2 ΔC22 [1]): 3 nM
IC50 (human Bcl-xL ΔC24 [2]): 9.7 nM
IC50 [3]: 9.8 nM

NLWAAQRYGRELRRMSDEFVDSFKKG (also called BadBH3) [Bad (103-128) BH3 peptide, human]
IC50 (human Bcl-2 ΔC22 [1]): 16 nM
IC50 (human Bcl-xL ΔC24 [2]): 5.3 nM
IC50 [3]: 30 nM

MEGSDALALRLACIGDEMDVSLRAP (also called BikBH3; hBik) [Bik (51-75) BH3 peptide, human]
IC50 (human Bcl-xL ΔC24 [2]): 43 nM
IC50 [3]: 12 nM
IC50 (read off the curve) (human Bcl-xL ΔC24 [4]): ~40 nM

B1: Hrk (26-51) BH3 peptide, human (peptide)
peptide: not shown
notes: also called HrkBH3
IC50 (human Bcl-2 ΔC22 [1]): 320 nM
IC50 (human Bcl-xL ΔC24 [2]): 3.7 nM
IC50 [3]: 49 nM

DIIRNIARHLAQVGDSMDRSIPPG (also called BidBH3) [Bid (81-104) BH3 peptide, human]
IC50 (human Bcl-2 ΔC22 [1]): 6800 nM
IC50 (human Bcl-xL ΔC24 [2]): 82 nM
IC50 [3]: 40 nM

PAELEVECATQLRRFGDKLNFRQKLL (also called NoxaBH3; wt NoxaBH3) [Noxa (18-43) BH3 peptide, human]
IC50 (human Bcl-2 ΔC22 [1]): > 100000 nM
IC50 (human Bcl-xL ΔC24 [2]): > 100000 nM
IC50 [3]: > 100000 nM
binding result (human Bcl-xL ΔC24 [5]): no binding
IC50 (human Bcl-xL ΔC24 [6]): > 100000 nM

PAELEVECATQLRRFGDELNFRQKLL (also called Noxa m1; K35E) [Noxa (18-43) mt1]
fold tighter than the wild-type peptide (human Bcl-xL ΔC24 [7]): ≥ 17 fold
fold increase of binding against wt NoxaBH3 (human Bcl-xL ΔC24 [8]): > 20 fold
IC50 (human Bcl-2 ΔC22 [9]): > 100 µM
binding result [10]: binds
IC50 (human Bcl-xL ΔC24 [6]): 5800 nM

PAELEVECATQLRRIGDKLNFRQKLL (also called Noxa m2; F32I) [Noxa (18-43) mt2]
fold tighter than wild type (human Bcl-xL ΔC24 [7]): ≥ 90 fold
fold increase of binding against wt NoxaBH3 (human Bcl-xL ΔC24 [8]): > 100 fold
IC50 (human Bcl-2 ΔC22 [9]): > 100 µM
binding result [10]: binds
IC50 (human Bcl-xL ΔC24 [6]): 1100 nM

B2: Noxa (18-43) mt3 (peptide)
peptide: PAELEVECATQLRRIGDELNFRQKLL
notes: also called Noxa m3 (peptide); double mutant K35E F32I
IC50 [11]: 410 nM
binding result (human Bcl-2 ΔC22 [9]): binds
IC50 (human Bcl-xL ΔC24 [12]): 100 nM
IC50 (human Bcl-xL ΔC24 [6]): 110 nM

B3: HA-tagged full-length mouse Bad (other)
chain: YPYDVPDYAMGTPKQPSLAPAHALGLRKSDPGIRSLGSDAGGRRWRPAAQSMFQIPEFEPSEQEDASATDRGLGPSLTEDQPGPYLAPGLLGSNIHQQGRAATNSHHGGAGAMETRSRHSSYPAGTEEDEGMEEELSPFRGRSRSAPPNLWAAQRYGRELRRMSDEFEGSFKGLPRPKSAGTATQMRQSAGWTRIIQSWWDRNLGKGGSTPSQ
notes: whole, on cells; also called HA-Bad; Bad (in cells)
binding result [13]: no binding

B4: HA-tagged full-length mouse Noxa (other)
chain: YPYDVPDYAMPGRKARRNAPVNPTRAELPPEFAAQLRKIGDKVYCTWSAPDITVVLAQMPGKSQKSRMRSPSPTRVPADLKDECAQLRRIGDKVNLRQKLLNLISKLFNLVT
notes: whole, on cells; also called HA-Noxa; Noxa (full-length mouse Noxa bearing two BH3s)
binding result [14]: no binding
binding result [15]: no binding

RAELPPEFAAQLRKIGDKVYCTWSAP (also called mouse Noxa BH3 peptide 1) [m Noxa1 (16-41) BH3 peptide]
binding result (human Bcl-2 ΔC22 [16]): no binding
binding result (human Bcl-xL ΔC24 [12]): no binding
binding result [17]: no binding

B5: m Noxa2 (68-93) BH3 peptide (peptide)
peptide: PADLKDECAQLRRIGDKVNLRQKLLN
notes: also called mNoxa B; mouse Noxa BH3 peptide 2
binding result (human Bcl-2 ΔC22 [16]): no binding
binding result (human Bcl-xL ΔC24 [12]): no binding
binding result [17]: no binding
